In patent US20220332800A1 (Takeda / Millennium, published 2022):
Substitutions are numbered along the chain they refer to.

B1: anti-ZIKV antibody 242-3 (antibody, V domains shown)
VH: QAQLEESGGDLVKPEGSLTLTCTASGFSFTDRHYMCWIRQAPGKGLEWIACVYPGSSGSTYYASWARGRFTISKTSSTTVTLRMTSLTAADTATYFCARSSYPDSSGYSYGMDLWGPGTLVTVSS
VL: DIVMTQTPASVEAAVGGTVTIKCQASQNINSNLAWYQQKPGQRPKFLMYLTSKLASGVPSRFRGSGSGTQFTLTISDLECADAATYYCQTYYDISNYGYAFGGGTEVVVK
notes: also called clone 242-3
B2: anti-ZIKV antibody 270-12 (antibody, V domains shown)
VH: B1 VH with I38V
VL: DIVMTQTPASVEAAVGGTVTIKCQASQDINSNLAWYQQKPGQRPKFLMYLTSKLASGVPSRFRGSGSGTQFTLTISDLECADAATYYCQTYYDISNYGYAFGGGTEVVVKG
notes: also called clone 270-12
B3: anti-ZIKV antibody 289-3 (antibody, V domains shown)
VH: QEELEESGGDLVKPGASLTLTCKASGFSFSSGAYICWVRQAPGKGPEWIACIYTGDGRTYYANWAKRRFTISSSSSTTVALEMPSLTDADTATYFCARAIAVGAGYGVGNYFTLWGPGTLVTVSS
VL: DIVMTQTPSSVSAAVGGTVTINCHASENIYGYLSWYQQKPGQPPKLLIYKASTLASGVPSRFKGSGAGTQFTLTITALECADAATYYCQSYYTSSSNADGSENAFGGGTEVVVEG
notes: also called clone 289-3; subclone 289-3
B4: anti-ZIKV antibody 306-2 (antibody, V domains shown)
VH: QSLEESGGDLVKPGASLTLTCTASGFDFSDRYYMCWVRQAPGKGLEWIGCIYVGSGDTYYASWAKGRFTISRTSSTTVTLQMTRLTAADTATYFCARHPGTYFTLWGPGTLVTVSS
VL: DVVMTQTPSSVSAAVGGTVTINCQASQNIVNNLAWYQQRPGQPPKLLIYDTSTLASGVPSRFKGSGSGTEFTLTISDLECADAATYYCQTYYYYNKIINGFGGGTEVVVKG
B5: anti-ZIKV antibody 11-3 (antibody, V domains shown)
VH: QEQLVESGGGLVQPEGSLTITCTGSGFSFSSRFYMCWVRQAPGKGLEWIACIYGGSSGSTYYASWAKGRFTISKTSSTTVTLQISSLTAADTATYFCARGGSTAAAGFNLWGPGTLLTVSS
VL: DVVMTQTPASVSATVGGTVTIKCQASEDIYNLLAWYQQKPGQPPKLLIYYASTLASGVPSRFKGSGSGTEFTLTISDLECADAATYYCQCNDYGGTYVPNAFGGGTEVVVKG
notes: also called clone 11-3
B6: anti-ZIKV antibody 78-2 (antibody, V domains shown)
VH: QQQLVESGGGLVKPGASLTLNCKASGLDFSTNSYMCWVRQAPGKGLEWIACIYVGDSSEIYYASWAKGRFTISKTSSTTVTLQMTSLTAADTATYFCARDLPSFTAPYAGYLRLWGPGTLVTVSS
VL: QPVLTQPPSLSASLGTTARLTCTLRTGYNVGDYPLLWLQRVPGRPPRYLLTYHTEEFKHQGSGVHSRFSGSKDASENAGVLSISGLQPEDEANYYCYTVHATESSLHYVFGGGTQLTVTG
notes: also called clone 78-2

Each binder was assayed against T1, ZIKV-VLP (Native Antigen Inc.) (Zika virus) (assay: BLI binning on ZIKV-VLP; 1st mAb (row): 242-3).
T1 construct: also called Zika VLP; ZVLP

Binder	response of 2nd mAb
B1	0.005
B2	-0.0103
B3	0.0011
B4	0.019

Each binder was assayed against T1, ZIKV-VLP (Native Antigen Inc.) (assay: BLI binning on ZIKV-VLP; 1st mAb: 4G2).

Binder	response of 2nd mAb
B1	0.93
B2	0.91
B5	0.75
B6	0.52
B3	1.04
B4	0.64

What follows are binders tested against T1, ZIKV-VLP (Native Antigen Inc.) (assay: BLI binning on ZIKV-VLP; 1st mAb: 242-3).

Binder	response of 2nd mAb
B1	0.08
B2	0.04
B5	0.42
B6	0.33
B3	0.07
B4	0.04

The binders below were run against T1, ZIKV-VLP (Native Antigen Inc.) (assay: ELISA, hybridoma supernatant (Abcam data)).

Binder	OD
B1	0.97 OD
B2	1.27 OD
B5	2.83 OD
B6	2.67 OD
B3	0.94 OD
B4	1.15 OD

The binders below were run against T1, ZIKV-VLP (Native Antigen Inc.) (assay: BLI binning on ZIKV-VLP; 1st mAb: 260-2).

Binder	response of 2nd mAb
B1	0.06
B2	0
B5	0.47
B6	0.33
B3	0.04
B4	0

Each binder was assayed against T1, ZIKV-VLP (Native Antigen Inc.) (assay: BLI binning on ZIKV-VLP; 1st mAb: Ab1).

Binder	response of 2nd mAb
B1	0.25
B2	0.34
B5	0.41
B6	0.38
B3	0.4
B4	0.19

Each binder was assayed against T1, ZIKV-VLP (Native Antigen Inc.) (assay: BLI (Octet), supernatant IgG captured on Protein A biosensor, ZIKV-VLP 3.3 µg/mL in solution, 1:1 model).

Binder	koff
B1	< 1e-07 s⁻¹
B5	< 1e-07 s⁻¹
B6	< 1e-07 s⁻¹
B3	0.000113 s⁻¹
B4	< 1e-07 s⁻¹

The binders below were run against T1, ZIKV-VLP (Native Antigen Inc.) (assay: BLI binning on ZIKV-VLP; 1st mAb: 270-12).

Binder	response of 2nd mAb
B1	0.04
B2	0.02
B5	0.38
B6	0.28
B3	0.02
B4	-0.01

What follows are binders tested against T1, ZIKV-VLP (Native Antigen Inc.) (assay: BLI binning on ZIKV-VLP; 1st mAb (row): 102-1).

Binder	response of 2nd mAb
B1	0.0181
B2	-0.004
B3	0.0047
B4	0.0269

These binders were tested against T1, ZIKV-VLP (Native Antigen Inc.) (assay: BLI binning on ZIKV-VLP; 1st mAb (row): 270-12).

Binder	response of 2nd mAb
B1	0.0325
B2	0.0171
B3	0.0064
B4	0.0125

These binders were tested against T1, ZIKV-VLP (Native Antigen Inc.) (assay: BLI binning on ZIKV-VLP; 1st mAb: C10).

Binder	response of 2nd mAb
B1	5.12
B2	4.27
B5	3.14
B6	3.41
B3	4.55
B4	4.54

What follows are binders tested against T1, ZIKV-VLP (Native Antigen Inc.) (assay: ELISA, purified recombinant mAb).

Binder	ELISA OD
B1	3.07 OD
B3	3.21 OD
B4	3.3 OD

These binders were tested against T1, ZIKV-VLP (Native Antigen Inc.) (assay: BLI binning on ZIKV-VLP; 1st mAb: 78-2).

Binder	response of 2nd mAb
B1	0.18
B2	0.44
B5	0.23
B6	0.06
B3	0.46
B4	0.26

These binders were tested against T1, ZIKV-VLP (Native Antigen Inc.) (assay: BLI binning on ZIKV-VLP; 1st mAb: 306-2).

Binder	response of 2nd mAb
B1	0.08
B2	0.31
B5	0.43
B6	0.28
B3	0.24
B4	0.01

What follows are binders tested against T1, ZIKV-VLP (Native Antigen Inc.) (assay: BLI binning on ZIKV-VLP; 1st mAb (row): 306-2).

Binder	response of 2nd mAb
B1	0.0732
B2	0.0432
B3	0.0428
B4	0.0225

Each binder was assayed against T1, ZIKV-VLP (Native Antigen Inc.) (assay: indirect ELISA, purified antibody serially diluted from 10 µg/ml).

Binder	EC50
B2	0.0128 µg/mL
B5	0.00657 µg/mL
B6	0.0319 µg/mL
B3	0.00724 µg/mL

Each binder was assayed against T1, ZIKV-VLP (Native Antigen Inc.) (assay: BLI binning on ZIKV-VLP; 1st mAb: Ab2).

Binder	response of 2nd mAb
B1	7.67
B2	3.5
B5	2.71
B6	2.46
B3	3.79
B4	4.51

The binders below were run against T1, ZIKV-VLP (Native Antigen Inc.) (assay: BLI binning on ZIKV-VLP; 1st mAb: 102-1).

Binder	response of 2nd mAb
B1	0.1
B2	0.07
B5	0.45
B6	0.32
B3	0.09
B4	0.07

Each binder was assayed against T1, ZIKV-VLP (Native Antigen Inc.) (assay: BLI binning on ZIKV-VLP; 1st mAb: 181-4).

Binder	response of 2nd mAb
B1	0.02
B2	0.01
B5	0.39
B6	0.3
B3	0.01
B4	-0.02

These binders were tested against T1, ZIKV-VLP (Native Antigen Inc.) (assay: BLI binning on ZIKV-VLP; 1st mAb (row): C10).

Binder	response of 2nd mAb
B1	0.0363
B2	0.0344
B3	0.0265
B4	-0.0006

The binders below were run against T1, ZIKV-VLP (Native Antigen Inc.) (assay: indirect ELISA, subclone supernatant).

Binder	VLP (OD) binding
B1	0.97 OD
B3	0.94 OD
B4	1.15 OD

What follows are binders tested against T1, ZIKV-VLP (Native Antigen Inc.) (assay: BLI binning on ZIKV-VLP; 1st mAb (row): 289-3).

Binder	response of 2nd mAb
B1	0.0219
B2	0.0261
B3	0.0128
B4	0.023

What follows are binders tested against T1, ZIKV-VLP (Native Antigen Inc.) (assay: BLI binning on ZIKV-VLP; 1st mAb: 289-3).

Binder	response of 2nd mAb
B1	0.04
B2	0.02
B5	0.42
B6	0.32
B3	0.02
B4	0.03

These binders were tested against T1, ZIKV-VLP (Native Antigen Inc.) (assay: BLI binning on ZIKV-VLP; 1st mAb: 329-2).

Binder	response of 2nd mAb
B1	-0.01
B2	0
B5	0.44
B6	0.33
B3	-0.01
B4	-0.03

What follows are binders tested against T1, ZIKV-VLP (Native Antigen Inc.) (assay: BLI binning on ZIKV-VLP; 1st mAb: 11-3).

Binder	response of 2nd mAb
B1	0.4
B2	0.47
B5	0.06
B6	0.42
B3	0.52
B4	0.34
